This note sets out measurements from article PMC8976717 (The Plant journal : for cell and molecular biology, 2021).

This data set deals with the molecule itself. The data set is described as follows: non-reducing SDS-PAGE.

B1: GAUT1Δ167 (Arabidopsis GALACTURONOSYLTRANSFERASE 1, truncated at the in vivo cleavage site between residues 167 and 168) (enzyme, Arabidopsis thaliana, UniProt Q9LE59 168-673, looked up)
chain: RANELVQHNDDTILKLENAAIERSKSVDSAVLGKYSIWRRENENDNSDSNIRLMRDQVIMARVYSGIAKLKNKNDLLQELQARLKDSQRVLGEATSDADLPRSAHEKLRAMGQVLAKAKMQLYDCKLVTGKLRAMLQTADEQVRSLKKQSTFLAQLAAKTIPNPIHCLSMRLTIDYYLLSPEKRKFPRSENLENPNLYHYALFSDNVLAASVVVNSTIMNAKDPSKHVFHLVTDKLNFGAMNMWFLLNPPGKATIHVENVDEFKWLNSSYCPVLRQLESAAMREYYFKADHPTSGSSNLKYRNPKYLSMLNHLRFYLPEVYPKLNKILFLDDDIIVQKDLTPLWEVNLNGKVNGAVETCGESFHRFDKYLNFSNPHIARNFNPNACGWAYGMNMFDLKEWKKRDITGIYHKWQNMNENRTLWKLGTLPPGLITFYGLTHPLNKAWHVLGLGYNPSIDKKDIENAAVVHYNGNMKPWLELAMSKYRPYWTKYIKFDHPYLRRCNLHE
B1: the binding result is “binds”.
